The target in this assay is recombinant human aminopeptidase N (hAPN) (human) (UniProt P15144). The assay can be described thus: enzyme inhibition assay (competition with the fluorogenic substrate H-Ala-AMC); 0.1 μM APN, 100 μM H-Ala-AMC, 100 mM Tris pH 7.2, Brij 35 0.0002% w/v, 37 °C, triplicate; inhibition competitive, Ki from the IC50 by the Cheng-Prusoff equation.

Turning to cyc-nHSPW (peptide), the Ki is more than 500 µM. Turning to nDQIY (peptide), the half-inhibitory concentration (IC50) was more than 500 µM. With nHSPW (peptide), the IC50 came out at 6.5 µM.

Source of the values: publication PMC5431086, “The Rational Design of Therapeutic Peptides for Aminopeptidase N using a Substrate-Based Approach” (Scientific Reports, 2017).
